{ppp} = triphosphate
B1: poly-U/UC PAMP: ~100 nt PAMP motif from the HCV genome comprising 5′ppp and the poly U/UC region, recognized by RIG-I; formulated in liposome (nucleic acid)
chain: GGCCAUCCUGUUUUUUUCCCUUUUUUUUUUUCUUUUUUUUUUUUUUUUUUUUUUUUUUUUUUUUUUCUCCUUUUUUUUUCCUCUUUUUUUCCUUUUCUUUCCUUU
modifications: RNA, 5' {ppp}, backbone and methylation of C not given here; formulated in liposome
notes: ~100 nt PAMP motif from the HCV genome comprising 5′ppp and the poly U/UC region, recognized by RIG-I; formulated in liposome

Experiments:
in vitro [1] = conditions: human
Protocol: (§3) HepG2-NTCP Cells (10A and 10C), dHepaRG (10B and 10D), and PHH (10E) were treated with increasing doses of F7 or poly-U/UC PAMP for 72 hours. Cell viability was determined concurrently by measuring ATP content, with values normalized to mock-treated cells. Graph represents the mean of triplicated samples in each of 3 independent experiments, with error bars showing standard deviation.ns=non-significant.
(§4) To determine the values of 90% of maximal Inhibitory concentration (IC90) and half-maximal Inhibitory concentration (IC50), as well as the cytotoxic concentration, CC50, of F7 and poly-U/UC, PAMP, two different cell lines were used, HepG2-hNTCP and dHepaRG cells.
(§5) Cytotoxicity assays: Cytotoxicity was evaluated from cultures of HepG2-C3A -hNTCP and dHepaRG cells using CellTiter-Glo as described (Edwards, T. C., et al. (2019). Inhibition of HBV replication by N-hydroxvisoquinolinedione and N-hydroxypyridinedinone ribonuclease H inhibitors. Antiviral research 164, 70-80). […] Cytotoxicity of each was measured with the ATP content as a measure of cell viability using the CellTiter-Glo™ reagent (Promega) per manufacturer's instructions. The plates were read using a luminescence plate reader (Berthold) and the relative luminescence unit (RLU) data generated from each well was calculated as percent signal compared to the untreated control. […]

in vitro [2] = conditions: human, HepG2-hNTCP cells (HepG2-C3A-hNTCP)
Protocol: as §3, §4, §5

dHepaRG cells = assay: Cytotoxicity, cellular ATP content (CellTiter-Glo), dHepaRG; conditions: 72 hours (FIG. 10D), 23.49 nM = 800 ng/ml
Protocol: as §3, §4, §5

IRF3 = assay: Innate immune activation in primary human hepatocytes (immunoblot, RT-qPCR); format: cell-based; conditions: PHH, 24 and 72 hours
Protocol: (§1) FIGS. 7A-7C illustrate suppression of cccDNA in primary human hepatocytes. (7A) PHH were cultured alone or were treated with 100 ng/ml X-RNA (X100), or 50 ng/ml (P50), 100 ng/ml (P100) or 200 ng/ml (P200) poly-U/UC PAMP or were infected with SenV (control) and harvested 24 and 72 hours later. The cell lysates were analyzed by immunoblot for p-IRF3 (S386 phosphorylated, active IRF3), IRF3 (total IRF3), IFIT1, and Actin (control) using respective antibodies. (7B) PHH cultures were cultured alone or were treated with 100 ng/ml X-RNA (X100), or 100 ng/ml (P100) or 200 ng/ml (P200) poly-U/UC PAMP or were infected with SenV (control) and harvested 24 and 72 later. Cells were harvested, RNA extracted and analyzed by RT-qPCR to measure the expression levels of the indicated innate immune genes normalized to the level of GAPDH expression. Values are shown on the heat map as mean fold induction over nontreated cells from three independent experiments. (7C) PHH cultures were inoculated with HBV at moi of 200 Geq/cell. […] Three days later the cells were harvested, DNA isolated by isolated Hirt extraction, and analyzed by Southern blot using a HBV-specific probe. […]
(§2) PHH cultures were treated over a poly-U/UC PAMP dose-response and assessed innate immune activation. […]

HBV cccDNA = assay: cccDNA levels in HBV-infected primary human hepatocytes (Southern blot); format: cell-based, HBV (Genotype D); conditions: PHH, HBV 200 Geq/cell, single treatment at 1 dpi, harvested 3 dpi
Protocol: as §1, §2

Molecule | CC50 at 72 h (in vitro [1]) [µM] | CC50 at 72 h (in vitro [2]) [µM] | CC50 (dHepaRG cells) [µM] | innate immune gene expression (RT-qPCR) (IRF3) | IRF3 activation (phosphoserine 386 IRF3) and IFIT1 expression (IRF3; poly-U/UC PAMP 50-200 ng/ml, X-RNA 100 ng/ml) | cccDNA levels (HBV cccDNA)
O=C(Nc1ccc2nc(NC(=O)c3ccc4ccccc4c3)sc2c1)c1ccccc1 [F7, N-(6-benzamido-1,3-benzothiazol-2-yl)naphthalene-2-carboxamide] | > 40 | > 40 |  |  |  | 
B1 |  |  | > 0.0235 | robustly induced innate immune gene expression | induced IRF3 activation | suppressed cccDNA levels in the infected PHH to levels similar to CsA treatment
